Experimental findings from doi:10.1101/2023.09.08.556349 (bioRxiv, 2023) are described below.

In test [1] the target is SARS-CoV-2 RBD-SD1 (Wu), S residues 319 to 591 (SARS-CoV-2 Wuhan-Hu-1, UniProt P0DTC2). The test can be described thus: ELISA. (ELISA stands for enzyme-linked immunosorbent assay.)
The target of test [2] is SARS-CoV-2 Spike S1-His Tag (HPLC-verified), NR-53798 (SARS-CoV-2 Wuhan-Hu-1, UniProt P0DTC2). As to the kind of experiment: ELISA.

B1: 3548-RBD-15 (antibody, V domains shown)
VH: QVQLQESGPGLVKPSETLSLTCTVSGGSVSSYYWSWIRQPPGKGLEWIGYIYYSGSTNYNPSLKSRVTISVDTSKNQFSLKLSSVTAADTAVYYCAKGIYSSSSYWGDPWGQGTLVTVSS
VL: not shown
Turning to B1, the binding result in test [1] and in test [2] was “binds” each time.

B2: 3548-S-2 (antibody, V domains shown)
VH: QVQLVESGPGLVKPSQTLSLTCTVSGGSISSGGYYWSWIRQHPGRGLERIGYIYYSGSTYYNPSLKSRVTISVDTSKDQFSLKLTSVTAADSAVYYCARGSRNDLRDFDYWGQGTLVTVSS
VL: QSVMTQPPSVSGAPGQRVTISCSGSSSNIGNNYVSWYQQLPGTAPKLLIYGNSNRSSRVPDRFSGSKSGTSASLAITGLQAEDEADYYCQSYNSSLSGLVVFGGGTQLTAL
For B2, the binding result in test [1] is reported as “binds”.
